This is an account of results in PMC2132604.

In the assay the target is p130^Cas, endogenous in CHO cells (Chinese hamster (endogenous in CHO)). Nature of the assay: co-IP.

The substance “FAK P712/715A double point mutant, epitope-tagged, expressed from pCDM8-P712/715A in CHO cells (from UniProt Q00944 1-1053) (enzyme)” gave a reduction of association relative to wild-type FAK (densitometry) of 50%.
